From patent US12139520B2 (priority 2020, dated 2024)
Numbered stars: 1 amine (or outer) side, 2 acyl side, 3 side chain; on linkers, the order of the positions; unused ones are H or OH. Bridge positions count the residues as written; N and C are the ends. Square brackets hold non-standard residues; d marks the D form. Ends that are not written are not given here. Peptide text beside a SMILES is read from it. * marks the point of attachment. C20 diacid = O=C(O)CCCCCCCCCCCCCCCCCCC(=O)*; γGlu = O=C(O)[C@H](CCC(=O)[*:2])N[*:1]; Hyp = O=C(O)[C@@H]1C[C@@H](O)CN1; NMeI = CC[C@H](C)[C@H](NC)C(=O)O; Sar = CNCC(=O)O

T1: hAMY3 receptor (Homo sapiens, UniProt O60896+P30988)
T1 sequence (P30988 25-474): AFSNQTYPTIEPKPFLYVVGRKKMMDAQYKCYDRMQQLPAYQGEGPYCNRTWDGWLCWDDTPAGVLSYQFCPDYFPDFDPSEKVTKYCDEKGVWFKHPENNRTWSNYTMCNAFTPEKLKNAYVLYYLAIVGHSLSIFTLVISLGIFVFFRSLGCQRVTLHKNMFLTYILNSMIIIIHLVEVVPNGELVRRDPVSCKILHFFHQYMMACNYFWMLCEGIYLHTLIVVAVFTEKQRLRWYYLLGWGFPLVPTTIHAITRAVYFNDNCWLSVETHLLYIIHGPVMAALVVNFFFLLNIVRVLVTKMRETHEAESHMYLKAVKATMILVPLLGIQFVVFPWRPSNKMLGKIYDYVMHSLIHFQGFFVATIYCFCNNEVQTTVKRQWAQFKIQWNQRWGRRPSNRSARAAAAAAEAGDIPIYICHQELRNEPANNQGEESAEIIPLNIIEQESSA
T1 sequence (O60896 24-148 partner): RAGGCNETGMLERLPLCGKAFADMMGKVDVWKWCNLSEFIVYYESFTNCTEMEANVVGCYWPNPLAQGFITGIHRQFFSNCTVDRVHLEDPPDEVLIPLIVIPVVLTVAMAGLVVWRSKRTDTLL

T2: hAMY3R (human, UniProt P30988)
T2 sequence 1: T1 sequence (P30988 25-474)
T2 sequence 2: T1 sequence (O60896 24-148 partner)

B1: SEQ ID NO: 46 (peptide)
peptide: GCRFGTCTVQRLAHQIYQFTDKDKDNVAPRTNIGPQG[Hyp]-NH2
modifications: disulfide 2-7 (inferred); ends not checked
B2: SEQ ID NO: 47 (peptide)
peptide: {C20 diacid-γGlu}-KCNTATCTVQRLAYQIYQFTDKDKDNVAPPTNVGSNG[Hyp]-NH2
modifications: disulfide 2-7 (inferred); ends not checked
B3: SEQ ID NO: 49 (peptide)
peptide: GCRTGTCTVQRLAHQIYQFTDKDKDNVAPRTNVGPQG[Hyp]-NH2
modifications: disulfide 2-7 (inferred); ends not checked
B4: SEQ ID NO: 48 (peptide)
peptide: {C20 diacid-γGlu}-KCNTATCTVQRLAHQIYQYTDKDKDNVAPPTNVGSNG[Hyp]-NH2
modifications: disulfide 2-7 (inferred); ends not checked
B5: SEQ ID NO: 45 (peptide)
peptide: GCRFGTCTVQRLAHQIYQFTDKDKDNVAPRTKVGPQG[Hyp]-NH2
modifications: disulfide 2-7 (inferred); ends not checked

What follows are molecules tested against T1, hAMY3 receptor (assay: cAMP assay for in vitro receptor activation, hAMY3-R). Conditions: cAMP assay, hAMY3 receptor; read-out: hAMY3R EC50.
Assay type: cell-based
Protocol: General Protocols for cAMP Assays for Measuring In Vitro Receptor Activation
Cells stably overexpressing the hAMY3 receptor were obtained from Ogeda (now Astellas Pharma), sub-cloned and a monoclonal cell-line with an appropriate assay-window was expanded, aliquoted and frozen.
An aliquot was thawed and plated in DPBS with 0.05% casein and 0.5 mM IBMX as 2000 cells/well in a 384-well format. The cells were then immediately stimulated for 30 min at room temperature with graded doses of test compound using human amylin (Bachem, cat no. H-7905) as a positive control. cAMP accumulation was measured using a Cisbio assay for Gs coupled receptors (cat. no. 62AM4PEC), where the assay reagents were added as per the manufacturer's instructions and time-resolved fluorescence energy transfer recorded after one hour.

Row | Molecule | EC50 [nM]
1 | CC[C@H](C)[C@H](NC(=O)[C@H](CCC(N)=O)NC(=O)[C@H](Cc1c[nH]cn1)NC(=O)[C@H](C)NC(=O)[C@H](CC(C)C)NC(=O)[C@H](CCCNC(=N)N)NC(=O)[C@H](CCC(N)=O)NC(=O)[C@@H](NC(=O)[C@@H](NC(=O)[C@@H]1CSSC[C@H](NC(=O)[C@@H](N)CCCCN)C(=O)N[C@@H](CC(N)=O)C(=O)N[C@@H](Cc2ccccc2)C(=O)N[C@@H](C)C(=O)N[C@@H]([C@@H](C)O)C(=O)N1)[C@@H](C)O)C(C)C)C(=O)N[C@@H](Cc1ccc(O)cc1)C(=O)N[C@@H](CCC(N)=O)C(=O)N[C@@H](Cc1ccccc1)C(=O)N[C@H](C(=O)N[C@@H](CC(=O)O)C(=O)N[C@@H](CCCCN)C(=O)N[C@@H](CC(=O)O)C(=O)N[C@@H](CCCCN)C(=O)N[C@@H](CC(=O)O)C(=O)N[C@@H](CC(N)=O)C(=O)N[C@H](C(=O)N[C@@H](C)C(=O)N1CCC[C@H]1C(=O)N1CCC[C@H]1C(=O)N[C@H](C(=O)N[C@@H](CCC(=O)O)C(=O)N[C@H](C(=O)NCC(=O)N[C@@H](CO)C(=O)N[C@@H](CC(N)=O)C(=O)NCC(=O)N1CCC[C@H]1C(N)=O)C(C)C)[C@@H](C)O)C(C)C)[C@@H](C)O [compound 18] (H-KCNFATCTVQRLAHQIYQFTDKDKDNVAPPTEVGSNGP-NH2; disulfide 2-7) | 0.008
2 | CC[C@H](C)[C@@H](C(=O)N[C@@H](CC(C)C)C(=O)N[C@@H](CO)C(=O)N[C@@H](CO)C(=O)N[C@H](C(=O)N[C@@H](CCC(=O)O)C(=O)N[C@H](C(=O)NCC(=O)N[C@@H](CO)C(=O)N[C@@H](CC(N)=O)C(=O)N[C@H](C(=O)N1C[C@H](O)C[C@H]1C(N)=O)[C@@H](C)O)C(C)C)[C@@H](C)O)N(C)C(=O)[C@H](C)NC(=O)CN(C)C(=O)[C@H](Cc1ccccc1)NC(=O)[C@H](CO)NC(=O)[C@H](CO)NC(=O)[C@H](CCCNC(=N)N)NC(=O)[C@H](CCC(N)=O)NC(=O)[C@H](CC(C)C)NC(=O)[C@H](Cc1ccccc1)NC(=O)[C@H](Cc1c[nH]cn1)NC(=O)[C@H](C)NC(=O)[C@H](CC(C)C)NC(=O)[C@H](CCCNC(=N)N)NC(=O)[C@H](CCC(=O)O)NC(=O)[C@@H](NC(=O)[C@H](C)NC(=O)[C@@H]1CSSC[C@H](NC(=O)[C@H](CCCNC(=N)N)NC(=O)CC[C@H](NC(=O)CCCCCCCCCCCCCCCCCCC(=O)O)C(=O)O)C(=O)N[C@@H](CCC(N)=O)C(=O)N[C@@H]([C@@H](C)O)C(=O)N[C@@H](C)C(=O)N[C@@H]([C@@H](C)O)C(=O)N1)[C@@H](C)O [compound 80] ({C20 diacid-γGlu}-RCQTATCATERLAHFLQRSSF[Sar]A[NMeI]LSSTEVGSNT[Hyp]-NH2; disulfide 2-7) | 0.015

The molecules below were run against T2, hAMY3R (assay: cell-based or functional assay). Conditions: not given.

Row | Molecule | hAMY3R EC50 (cAMP) [nM]
3 | B1 | 0.011
4 | B2 | 0.011
5 | B3 | 0.011
6 | B4 | 0.011
7 | B5 | 0.011

The molecules below were run against hAM1R (human, UniProt Q16602) (assay: cell-based or functional assay). Conditions: not given.

Row | Molecule | hAM1R EC50 (cAMP) [nM]
8 | B1 | 78.5
9 | B2 | 500
10 | B3 | 2980
11 | B4 | 761
12 | B5 | 50.5
